Test results from patent US20250011397A1 (HOSPITAL FOR SICK CHILDREN, published 2025).
Residue numbers refer to the chain shown, from its start. “And” between values parts separate entries of the source, which are not always exact repeats. Equal entries are not always repeated.

B1: MB 82 (other)
heavy: QVQLVQSGAEVKKPGASVKVSCKASGGSFSTSAFYWVRQAPGQGLEWMGWINPYTGGTNYAQKFQGRVTMTRDTSTSTVYMELSSLRSEDTAVYYCARSRALYGSGSYFDYWGQGTLVTVSSASTKGPSVFPLAPSSKSTSGGTAALGCLVKDYFPEPVTVSWNSGALTSGVHTFPAVLQSSGLYSLSSVVTVPSSSLGTQTYICNVNHKPSNTKVDKKVEPKSC
light: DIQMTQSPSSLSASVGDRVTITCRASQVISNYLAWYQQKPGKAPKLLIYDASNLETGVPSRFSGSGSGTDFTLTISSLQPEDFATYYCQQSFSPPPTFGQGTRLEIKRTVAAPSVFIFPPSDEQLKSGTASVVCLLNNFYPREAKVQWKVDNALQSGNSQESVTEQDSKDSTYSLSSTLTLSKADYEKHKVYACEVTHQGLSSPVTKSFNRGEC
B2: MB 46 (other)
heavy: EVQLLESGGGLVQPGRSLRLSCAASGFTFSSYAMSWVRQAPGKGLEWVSTIYSGGSTYYADSVKGRFTISRDNSKNTLYLQMNSLRAEDTAVYYCARGDSRDAFDIWGQGTMVTVSSASTKGPSVFPLAPSSKSTSGGTAALGCLVKDYFPEPVTVSWNSGALTSGVHTFPAVLQSSGLYSLSSVVTVPSSSLGTQTYICNVNHKPSNTKVDKKVEPKSC
light: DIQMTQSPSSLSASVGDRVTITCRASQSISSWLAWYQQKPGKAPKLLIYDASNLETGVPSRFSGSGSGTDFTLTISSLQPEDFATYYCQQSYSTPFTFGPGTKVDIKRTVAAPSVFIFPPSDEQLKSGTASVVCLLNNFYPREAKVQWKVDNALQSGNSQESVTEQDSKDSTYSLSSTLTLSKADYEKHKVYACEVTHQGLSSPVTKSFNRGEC
B3: mAb 349 (antibody, V domains shown)
VH: EVQLLESGGGLVQPGGSLRLSCAASGFTFSNYGMHWVRQAPGKGLEWVSGISSAGSITNYADSVKGRFTISRDNSKNTLYLQMNSLRAEDTAVYYCAGNHAGTTVTSEYFQHWGQGTLVTVSS
VL: DIQMTQSPSSLSASVGDRVTITCRASQSISSWLAWYQQKPGKAPKLLIYDTSNLETGVPSRFSGSGSGTDFTLTISSLQPEDFATYYCQQSYTTPWTFGQGTRLEIKR
notes: also called IgG 349
B4: mAb 178 (antibody, V domains shown)
VH: QVQLVQSGAEVKKPGASVKVSCKASGYTFTDYHMHWVRQAPGQGLEWMGWINPNSGGTNYAQKFQGRVTMTRDTSTSTVYMELSSLRSEDTAVYYCARDISSWYEITKFDPWGQGTLVTVSS
VL: EIVMTQSPATLSVSPGERATLSCKASQSVSGTYLAWYQQKPGQAPRLLIYGASTRATGIPARFSGSGSGTEFTLTISSLQSEDFAVYYCLQTHSYPPTFGQGTKVEIKR
notes: also called IgG 178
B5: mAb 108 (antibody, V domains shown)
VH: QVQLVQSGAEVKKPGASVKVSCKASGYIFSRYAIHWVRQAPGQGLEWMGWMNPISGNTDYAPNFQGRVTMTRDTSTSTVYMELSSLRSEDTAVYYCAKDGSQLAYLVEYFQHWGQGTLVTVSS
VL: B3 VL with S28V, S30T, S31N, W32N, T51A, N53T, T94F, W96Y, R103K, L104V
B6: mAb 160 (antibody, V domains shown)
VH: QVQLVQSGAEVKKPGASVKVSCKASGYTFTGHDMHWVRQAPGQGLEWMGIINPSGGSTSYAQKFQGRVTMTRDTSTSTVYMELSSLRSEDTAVYYCARANSLRYYYGMDVWGQGTMVTVSS
VL: B3 VL with I29V, D50A, T51A, N53S, E55Q, T56S, S91G, W96Y, R103K
notes: also called IgG 160
B7: mAb 368 (antibody, V domains shown)
VH: QVQLVQSGAEVKKPGSSVKVSCKASGYTFTSYDINWVRQAPGQGLEWMGAIMPMFGTANYAQKFQGRVTITADESTSTAYMELSSLRSEDTAVYYCARGSSGYYYGWGQGTLVTVSS
VL: not shown
B8: mAb 192 (antibody, V domains shown)
VH: QVQLVQSGAEVKKPGSSVKVSCKASGGTFSSYAISWVRQAPGQGLEWMGWINPNSGGANYAQKFQGRVTITADESTSTAYMELSSLRSEDTAVYYCSTYYYDSSGYSTDYWGQGTLVTVSS
VL: DIVMTQSPLSLPVTPGEPASISCRSSQSLLHSNGYNYLDWYLQKPGQSPQLLIYAASSLQSGVPDRFSGSGSGTDFTLKISRVEAEDVGVYYCMQALQTPYTFGQGTKLEIKR
B9: mAb 158 (antibody, V domains shown)
VH: QVQLVQSGAEVKKPGASVKVSCKASGYTFTGYYMHWVRQAPGQGLEWMGWINPLNGGTNFAPKFQGRVTMTRDTSTSTVYMELSSLRSEDTAVYYCARDPGGSYSNDAFDIWGQGTLVTVSS
VL: DIQMTQSPSSLSASVGDRVTITCRASQSISRYLNWYQQKPGKAPKLLIYDASNLESGVPSRFSGSGSGTDFTLTISSLQPEDFATYYCQQANSFPLTFGGGTKVDIKR
notes: also called IgG 158
B10: mAb 180 (antibody, V domains shown)
VH: QVQLVQSGAEVKKPGSSVKVSCKASGYTFTSYAMHWVRQAPGQGLEWMGRISPRSGGTKYAQRFQGRVTITADESTSTAYMELSSLRSEDTAVYYCAREAVAGTHPQAGDFDLWGRGTLVTVSS
VL: B8 VL with M94Q, A96Y, L97Y, Q98S, T99S
B11: mAb 254 (antibody, V domains shown)
VH: EVQLLESGGGLVQPGGSLRLSCAASGFTFSSSAMHWVRQAPGKGLEWVSAIGTGGDTYYADSVKGRFTISRDNSKNTLYLQMNSLRAEDTAVYYCAREGDGYNFYFDYWGQGTLVTVSS
VL: DIQMTQSPSSLSASVGDRVTITCRASQGISSYLAWYQQKPGKAPKLLIYDASSLQIGVPSRFSGSGSGTDFTLTISSLQPEDFATYYCLQSYSTPPWTFGQGTKVEIKR
notes: also called IgG 254
B12: mAb 120 (antibody, V domains shown)
VH: QVQLVQSGAEVKKPGASVKVSCKASGYTFTSYDINWVRQAPGQGLEWMGMIDPSGGSTSYAQKFQGRVTMTRDTSTSTVYMELSSLRSEDTAVYYCAKDFGGGTRYDYWYFDLWGRGTLVTVSS
VL: EIVMTQSPATLSVSPGERATLSCRASQSVSSRYLAWYQQKPGQAPRLLIYGASTRATGIPARFSGSGSGTEFTLTISSLQSEDFAVYYCQQYYTTPRTFGQGTRLEIKR
notes: also called IgG 120
B13: mAb 64 (antibody, V domains shown)
VH: EVQLLESGGGLVQPGGSLRLSCAASGFPFSQHGMHWVRQAPGKGLEWVSAIDRSGSYIYYADSVKGRFTISRDNSKNTLYLQMNSLRAEDTAVYYCARDTYGGKVTYFDYWGQGTLVTVSS
VL: B3 VL with S28G, W32H, T51A, S91T, T93S, R103K, L104V
notes: also called IgG 64
B14: mAb 82 (antibody, V domains shown)
VH: QVQLVQSGAEVKKPGASVKVSCKASGGSFSTSAFYWVRQAPGQGLEWMGWINPYTGGTNYAQKFQGRVTMTRDTSTSTVYMELSSLRSEDTAVYYCARSRALYGSGSYFDYWGQGTLVTVSS
VL: B3 VL with S28V, S31N, W32Y, T51A, Y92F, T93S, T94P, W96P
notes: also called IgG 82

Molecular target: Spike of authentic SARS-CoV-2/SB2-P4-PB virus (SARS-CoV-2, UniProt P0DTC2 14-1273)
Assay: cell-based or functional assay

Binder	IC50 SARS-CoV2/SB2-P4-PB (µg/mL), MB [µg/mL]
B1	0.21
B2	0.027

Molecular target: T1, SARS-CoV-2 Spike on HIV-based pseudotyped virus (Spike plasmid BEI NR52310) (SARS-CoV-2, UniProt P0DTC2 14-1273)
Assay: cell-based or functional assay

Binder	IC50 SARS-CoV2 PsV (µg/mL), MB [µg/mL]	IC50 SARS-CoV2 PsV (µg/mL), IgG [µg/mL]
B1	0.0022	
B2	0.0024	
B3		> 50
B4		> 50
B5		> 50
B6		> 50
B7		> 50
B8		> 50
B9		> 50
B10		> 50
B11		> 50
B12		> 50
B13		> 50
B14		1.6

Molecular target: T1, SARS-CoV-2 Spike on HIV-based …
Assay: cell-based or functional assay
Remark: another data set of the same source

Binder	Median IC50 (PsV neutralization)
B1	0.0022 µg/mL and 0.95 pM
B2	0.0024 µg/mL and 1 pM
B3	> 50 µg/mL and > 333 nM
B4	> 50 µg/mL and > 333 nM
B5	> 50 µg/mL and > 333 nM
B6	> 50 µg/mL and > 333 nM
B7	> 50 µg/mL and > 333 nM
B8	> 50 µg/mL and > 333 nM
B9	> 50 µg/mL and > 333 nM
B10	> 50 µg/mL and > 333 nM
B11	> 50 µg/mL and > 333 nM
B12	> 50 µg/mL and > 333 nM
B13	> 50 µg/mL and > 333 nM
B14	1.6 µg/mL and 11 nM
